Patent US20240084003A1 (SIMCERE ZAIMING PHARMACEUTICAL, published 2024)
Values belong to the binder of their own block, whether it stands above or below them.

Legend:
[1] = molecular target: T1, human CD22-ECD-His protein (human, UniProt P20273 20-687); test: ELISA, Ab 0.01 nM
T1 construct: Made in house in HEK293E; also called hCD22-ECD-His; recombinant human CD22-ECD His protein; not shown: His tag
T1 sequence: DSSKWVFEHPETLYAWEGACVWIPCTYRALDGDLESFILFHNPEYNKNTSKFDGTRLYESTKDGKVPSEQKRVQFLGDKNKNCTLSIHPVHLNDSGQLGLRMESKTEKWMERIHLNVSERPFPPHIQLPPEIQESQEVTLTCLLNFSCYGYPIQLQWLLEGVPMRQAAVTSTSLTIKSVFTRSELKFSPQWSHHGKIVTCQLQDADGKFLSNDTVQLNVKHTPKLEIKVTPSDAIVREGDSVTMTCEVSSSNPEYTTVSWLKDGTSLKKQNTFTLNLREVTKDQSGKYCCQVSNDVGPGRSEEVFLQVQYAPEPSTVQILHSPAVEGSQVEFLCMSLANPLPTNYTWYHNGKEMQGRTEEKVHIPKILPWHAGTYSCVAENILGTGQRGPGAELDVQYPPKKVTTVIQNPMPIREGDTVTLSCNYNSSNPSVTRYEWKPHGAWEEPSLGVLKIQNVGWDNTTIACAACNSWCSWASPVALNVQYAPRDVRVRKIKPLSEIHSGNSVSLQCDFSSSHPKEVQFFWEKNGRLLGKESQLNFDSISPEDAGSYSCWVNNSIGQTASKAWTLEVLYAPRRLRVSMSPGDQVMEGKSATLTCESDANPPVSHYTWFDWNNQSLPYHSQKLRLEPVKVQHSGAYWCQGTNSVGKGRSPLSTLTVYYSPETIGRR
Experimental: (§1) In order to detect the binding activity of CD22 human-murine chimeric antibodies to CD22 protein, the purified human CD22-ECD-His protein obtained in Example 2 was diluted with PBS to a final concentration of 2 μg/mL, and then added to 96-well ELISA plate at 100 μl/well. The plate was sealed with plastic film and incubated overnight at 4° C., the plate was washed 2 times with PBS the next day, and then a blocking solution [PBS+2% (w/w) BSA] was added for blocking at room temperature for 2 hours. […] After incubation at 37° C. for 2 hours, the plate was washed 3 times with PBS. HRP (horseradish peroxidase)-labeled secondary antibody (purchased from Sigma, catalog number: A0170) was added, and incubated at 37° C. for 2 hours, and the plate was washed 5 times with PBS. TMB substrate was added at 50 μl/well, and incubated at room temperature for 30 minutes, then a stop solution (1.0 N HCl) was added at 50 μl/well.

[2] = molecular target: T1, human CD22-ECD-His protein; test: ELISA, Ab 0.10 nM
Experimental: as §1

[3] = molecular target: T1, human CD22-ECD-His protein; test: ELISA, Ab 0.001 nM
Experimental: as §1

[4] = molecular target: T1, human CD22-ECD-His protein; test: ELISA, Ab 10.00 nM
Experimental: as §1

[5] = molecular target: T1, human CD22-ECD-His protein; test: ELISA, Ab 0.0001 nM
Experimental: as §1

[6] = molecular target: T1, human CD22-ECD-His protein; test: ELISA, Ab 100.00 nM
Experimental: as §1

[7] = molecular target: T1, human CD22-ECD-His protein; test: ELISA, Ab 0.00001 nM
Experimental: as §1

[8] = molecular target: T1, human CD22-ECD-His protein; test: ELISA, human CD22-ECD-His coated
Experimental: as §1

[9] = molecular target: T2, murine CD22 protein (ACROBiosystems, SI2-M52Ha) (murine, UniProt P35329 22-708); test: ELISA, murine CD22-ECD-His coated
T2 construct: extracellular domain; also called murine CD22-ECD; murine CD22-ECD-His
T2 sequence (looked up): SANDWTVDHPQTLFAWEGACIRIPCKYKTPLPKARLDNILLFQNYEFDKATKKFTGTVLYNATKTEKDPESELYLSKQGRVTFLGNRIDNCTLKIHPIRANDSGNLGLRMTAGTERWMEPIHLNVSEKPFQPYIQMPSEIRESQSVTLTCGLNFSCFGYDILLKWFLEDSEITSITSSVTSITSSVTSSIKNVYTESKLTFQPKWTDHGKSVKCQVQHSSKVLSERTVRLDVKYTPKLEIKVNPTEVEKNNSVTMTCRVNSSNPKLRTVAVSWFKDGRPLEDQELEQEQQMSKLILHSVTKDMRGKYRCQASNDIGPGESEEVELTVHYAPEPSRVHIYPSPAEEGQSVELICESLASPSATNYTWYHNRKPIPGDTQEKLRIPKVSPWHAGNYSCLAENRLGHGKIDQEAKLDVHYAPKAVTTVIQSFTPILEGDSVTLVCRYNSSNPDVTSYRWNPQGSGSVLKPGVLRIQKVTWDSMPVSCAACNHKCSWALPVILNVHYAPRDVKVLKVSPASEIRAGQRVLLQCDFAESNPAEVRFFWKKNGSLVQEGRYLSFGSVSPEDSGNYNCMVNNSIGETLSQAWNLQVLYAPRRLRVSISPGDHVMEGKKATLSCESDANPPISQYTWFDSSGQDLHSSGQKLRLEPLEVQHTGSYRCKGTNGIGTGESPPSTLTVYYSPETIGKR
Experimental: as §1
In order to detect the species cross-binding activity of the chimeric antibodies, an ELISA plate was coated with commercial murine CD22 protein (ACROBiosystems, catalog number: SI2-M52Ha) and monkey CD22 protein (ACROBiosystems, catalog number: SI2-R52Ha), respectively, and the ELISA detection was performed according to the method in Example 5.1.

human CD22 domain5-7-His = molecular target: T3, human CD22 domain5-7-His (human, UniProt P20273 414-687); test: ELISA, human CD22 domain5-7-His coated
T3 construct: also called hCD22 domain5-7-His; not shown: His tag
T3 sequence: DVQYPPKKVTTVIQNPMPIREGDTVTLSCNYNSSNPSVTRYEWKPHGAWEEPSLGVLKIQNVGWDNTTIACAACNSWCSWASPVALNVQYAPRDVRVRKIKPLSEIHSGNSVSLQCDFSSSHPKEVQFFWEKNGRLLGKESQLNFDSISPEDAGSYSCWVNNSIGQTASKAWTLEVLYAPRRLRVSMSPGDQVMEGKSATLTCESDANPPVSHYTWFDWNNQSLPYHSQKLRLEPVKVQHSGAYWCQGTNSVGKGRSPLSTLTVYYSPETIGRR

- OD450 [1]: 2.16 OD450
- OD450 [2]: 2.79 OD450
- OD450 [3]: 1.07 OD450
- OD450 [4]: 2.67 OD450
- OD450 [5]: 0.37 OD450
- OD450 [6]: 2.93 OD450
- OD450 [7]: 0.24 OD450
- EC50 (read off the curve) [8]: ~0.02 nM
- binding result [9]: no binding (tested: 100 nM)
- binding result (human CD22 domain5-7-His): no binding (tested: 100 nM)
B1: F1.62.10 (antibody, human IgG1, kappa, V domains shown)
VH: QVQLQQSGPELVKPGASVKISCKASGYEFSSIWMNWVKQRPGEGLEWIGRIFPGDGEINYNEKFKGKATLTADRSSTTAYMQLSSLTSEDSAVYFCAGWRIYYGTYGAMDYWGQGTSVTVSS
VL: DIQMTQITSSLSASLGDRVTISCRASQDIGNYLNWYQQKPDGTVKLLIYYTSRLHSGVPSRFSGSGSRTDYSLTISNLQQEDIATYFCQQGNTLPWTFGGGTKLEIKR
notes: Human-murine chimeric IgG1, kappa

- OD450 [1]: 2.34 OD450
- OD450 [2]: 2.61 OD450
- OD450 [3]: 1.22 OD450
- OD450 [4]: 2.63 OD450
- OD450 [5]: 0.43 OD450
- OD450 [6]: 2.97 OD450
- OD450 [7]: 0.25 OD450
- EC50 (read off the curve) [8]: ~0.02 nM
- binding result [9]: no binding (tested: 100 nM)
- binding result (human CD22 domain5-7-His): no binding (tested: 100 nM)
B2: F1.161.7 (antibody, human IgG1, kappa, V domains shown)
VH: QVQLQQPGAELVKPGASVKMSCKASGYTFTSYWISWVKQRPGQGLEWIGDIYPGTGSSNYNEKFKSKATLTVDTSSSTAYMQLSSLTSEDSAVYYCARLKFEGIGYWGQGTTLTVSS
VL: QIVLTQSPAIMSASLGEEITLTCSASSSVSYMHWFQQKSGTSPKLLIYSISNLASGVPSRFSGSGSGTFYSLTISSVEAEDAADYYCHQWSSYPWTFGGGTKLEIKR
notes: as for B1

- OD450 [1]: 1.6 OD450
- OD450 [2]: 1.84 OD450
- OD450 [3]: 0.69 OD450
- OD450 [4]: 1.92 OD450
- OD450 [5]: 0.33 OD450
- OD450 [6]: 2.11 OD450
- OD450 [7]: 0.23 OD450
- EC50 (read off the curve) [8]: ~0.03 nM
- binding result [9]: no binding (tested: 100 nM)
- binding result (human CD22 domain5-7-His): no binding (tested: 100 nM)
B3: F2.121.9 (antibody, human IgG1, lambda, V domains shown)
VH: EVQLVESGGGLVKPGGSLKLSCAASGFTFSDYVMSWIRQTPEKRLEWVATISDAGSYTFYPDNLKGRFTISRDNAKNNLYLQMNHLTSEDTAFYYCAIIYFGNYGGYWGQGTLVTVSV
VL: QAVVTQESALTTSPGGTVVLTCRSNTGAVTTSNYANWVQEKPDHLFTGLIGGTSNRAPGVPVRFSGSLIGDKAALTITGAQTEDDAMYFCALWYSTHWVFGGGTKLTVLG
notes: Human-murine chimeric IgG1, lambda
